This is an account of results in publication PMC4742958, “NuSAP governs chromosome oscillation by facilitating the Kid-generated polar ejection force” (Nature Communications, 2016).

For the assay, the target named is T1, glutathione S-transferase (GST)-tagged Kid recombinant protein (human, UniProt Q14807 1-665).
T1 construct: cDNA amplified from a cDNA library extracted from HEK 293T cells, inserted into pGEX-4T-1; Vector pGEX-4T-1; The discussion calls the Kid of the gliding assay (Kid-GFP-His, another construct) full-length; nothing is said of the limits of GST-Kid; also called GST-Kid; source: E. coli BL21 (DE3) pLysS, purified (glutathione-Sepharose 4B)
T1 sequence (looked up): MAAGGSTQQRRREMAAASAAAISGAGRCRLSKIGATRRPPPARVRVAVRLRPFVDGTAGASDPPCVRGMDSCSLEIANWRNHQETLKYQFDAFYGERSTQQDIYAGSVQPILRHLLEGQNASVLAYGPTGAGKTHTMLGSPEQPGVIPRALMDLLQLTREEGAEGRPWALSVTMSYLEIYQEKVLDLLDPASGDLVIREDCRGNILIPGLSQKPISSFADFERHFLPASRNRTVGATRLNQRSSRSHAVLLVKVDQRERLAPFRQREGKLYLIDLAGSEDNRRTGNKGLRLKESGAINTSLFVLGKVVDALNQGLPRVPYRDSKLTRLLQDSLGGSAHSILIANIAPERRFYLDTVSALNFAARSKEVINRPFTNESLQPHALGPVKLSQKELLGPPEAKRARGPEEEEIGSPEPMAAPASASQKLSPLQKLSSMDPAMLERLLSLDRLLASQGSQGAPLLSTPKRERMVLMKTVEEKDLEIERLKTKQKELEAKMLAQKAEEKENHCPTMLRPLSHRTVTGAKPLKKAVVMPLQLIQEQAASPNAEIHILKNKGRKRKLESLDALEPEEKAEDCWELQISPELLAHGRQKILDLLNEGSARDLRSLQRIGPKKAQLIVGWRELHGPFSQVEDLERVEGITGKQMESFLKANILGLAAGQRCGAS
Nature of the assay: pull-down; GST or GST-Kid (2 μg) on glutathione beads with 2 μg purified His-NuSAP; 50 mM Tris-HCl pH 7.0, 150 mM NaCl, 1 mM EGTA, 0.5% Triton X-100; 3 h at 4 °C; NuSAP blotted with anti-NuSAP antibody. The settings on record: both partners purified.

B1: His-tagged NuSAP recombinant protein (natural protein, human (cDNA library from HEK 293T cells), UniProt Q9BXS6 1-441, looked up)
chain: MIIPSLEELDSLKYSDLQNLAKSLGLRANLRATKLLKALKGYIKHEARKGNENQDESQTSASSCDETEIQISNQEEAERQPLGHVTKTRRRCKTVRVDPDSQQNHSEIKISNPTEFQNHEKQESQDLRATAKVPSPPDEHQEAENAVSSGNRDSKVPSEGKKSLYTDESSKPGKNKRTAITTPNFKKLHEAHFKEMESIDQYIERKKKHFEEHNSMNELKQQPINKGGVRTPVPPRGRLSVASTPISQRRSQGRSCGPASQSTLGLKGSLKRSAISAAKTGVRFSAATKDNEHKRSLTKTPARKSAHVTVSGGTPKGEAVLGTHKLKTITGNSAAVITPFKLTTEATQTPVSNKKPVFDLKASLSRPLNYEPHKGKLKPWGQSKENNYLNQHVNRINFYKKTYKQPHLQTKEEQRKKREQERKEKKAKVLGMRRGLILAED
notes: NuSAP; cDNA amplified from a cDNA library extracted from HEK 293T cells, inserted into pET28b; Vector pET28b; also called His-NuSAP; source: E. coli BL21 (DE3) pLysS, purified (Ni-NTA agarose)
For the molecule B1, the binding result is listed as “binds”.
